Values quoted from earlier work in PMC2752191.

How the values were obtained:
Beclin1 peptide = Beclin1 peptide (UniProt Q14457)
Bak peptide = Bak peptide (UniProt Q16611)
Bax peptide = Bax peptide (UniProt Q07812)
Sequence of Bax peptide (Q07812 55-74): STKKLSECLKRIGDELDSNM

Sequence of vBcl-2 (P89884 whole entry): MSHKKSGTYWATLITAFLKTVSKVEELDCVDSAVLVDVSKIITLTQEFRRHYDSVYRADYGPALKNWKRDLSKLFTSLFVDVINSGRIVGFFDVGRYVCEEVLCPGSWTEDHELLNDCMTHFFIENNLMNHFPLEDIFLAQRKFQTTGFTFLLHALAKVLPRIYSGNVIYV
Sequence of Beclin1 peptide (Q14457 107-130): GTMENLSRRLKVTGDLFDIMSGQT

**Q.** For vBcl-2 (from UniProt P89884), which Kd (Beclin1 peptide) is on record?
**A.** The Kd was 40 nM.

**Q.** What about the Kd (Bak peptide) of the same substance?
**A.** Its Kd is 76 nM.

**Q.** And the Kd (Bax peptide)?
**A.** Its Kd is 690 nM.
